Among the targets are GRIP2_4, Q9C0E4; ARHGEF12, Q9NZN5-2; CASK, O14936; PTPN3, P26045; MAGI2_6, Q86UL8; FRMPD2_2, Q68DX3; MAST2, Q6P0Q8; PDLIM1, O00151; DLG4_1, P78352; Inadl_4, Q8NI35.
Common to all, as to assay: holdup assay
Design in all cases: key: below the threshold = too weak to quantify, mostly under pKd 3.1 to 4

The next assay deals with T1, LIN7B, Q9HAP6.
T1 sequence (Q9HAP6 88-185, limits assumed, looked up): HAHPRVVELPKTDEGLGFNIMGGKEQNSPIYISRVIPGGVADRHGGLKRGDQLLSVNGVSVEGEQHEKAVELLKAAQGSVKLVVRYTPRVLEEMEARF

The next assay concerns the target T2, MPDZ_5, O75970.
T2 sequence (O75970 695-796, limits assumed, looked up): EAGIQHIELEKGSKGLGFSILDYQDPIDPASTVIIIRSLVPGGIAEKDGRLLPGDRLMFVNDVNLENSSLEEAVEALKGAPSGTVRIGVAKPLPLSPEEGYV

The target in another assay is T3, NHERF3_3, Q5T2W1.
T3 sequence (Q5T2W1 238-333, limits assumed, looked up): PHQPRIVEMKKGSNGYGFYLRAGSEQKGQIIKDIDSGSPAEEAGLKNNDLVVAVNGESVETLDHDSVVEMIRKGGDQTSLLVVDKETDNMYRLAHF

A further assay concerns the target T4, SIPA1L2, Q9P2F8.
T4 sequence (Q9P2F8 945-1036, limits assumed, looked up): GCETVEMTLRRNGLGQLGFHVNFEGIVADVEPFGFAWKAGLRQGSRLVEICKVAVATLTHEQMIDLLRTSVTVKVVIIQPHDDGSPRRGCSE

The target of the next assay is T5, ARHGAP21, Q5T5U3.
T5 sequence (Q5T5U3 45-169, limits assumed, looked up): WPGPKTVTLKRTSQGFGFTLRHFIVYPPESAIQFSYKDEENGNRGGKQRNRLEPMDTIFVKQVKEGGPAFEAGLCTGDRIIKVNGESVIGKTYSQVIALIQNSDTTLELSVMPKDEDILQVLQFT

The target in another assay is T6, MPP7, Q5T2T1.
T6 sequence (Q5T2T1 134-230, limits assumed, looked up): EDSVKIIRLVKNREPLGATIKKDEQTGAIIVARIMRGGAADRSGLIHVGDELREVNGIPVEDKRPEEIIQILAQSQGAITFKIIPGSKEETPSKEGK

Another assay addresses T7, PDZD7_3, Q9H5P4.
T7 sequence (Q9H5P4 857-944, limits assumed, looked up): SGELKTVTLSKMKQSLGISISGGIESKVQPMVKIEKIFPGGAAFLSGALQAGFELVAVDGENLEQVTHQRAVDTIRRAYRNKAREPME

The target in a further assay is T8, TX1BP3, O14907.
T8 sequence (O14907 10-122, limits assumed, looked up): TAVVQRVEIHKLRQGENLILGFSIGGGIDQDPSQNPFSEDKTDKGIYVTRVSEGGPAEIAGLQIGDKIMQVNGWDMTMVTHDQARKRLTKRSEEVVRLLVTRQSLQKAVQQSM

For a further assay, the target named is T9, GRIP1_5, Q9Y3R0.
T9 sequence (Q9Y3R0 568-668, limits assumed, looked up): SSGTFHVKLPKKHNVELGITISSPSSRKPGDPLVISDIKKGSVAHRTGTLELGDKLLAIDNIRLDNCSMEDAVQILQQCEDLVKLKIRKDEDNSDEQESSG

For the next assay, the target named is T10, SNTB1, Q13884.
T10 sequence (Q13884 107-205, limits assumed, looked up): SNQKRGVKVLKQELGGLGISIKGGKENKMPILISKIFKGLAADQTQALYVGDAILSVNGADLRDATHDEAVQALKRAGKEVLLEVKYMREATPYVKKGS

A further assay deals with T11, MPP2, Q14168.
T11 sequence (Q14168 180-250, limits assumed, looked up): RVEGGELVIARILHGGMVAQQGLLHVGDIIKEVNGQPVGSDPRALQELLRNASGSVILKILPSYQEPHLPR

Another assay deals with T12, NHERF3_4, Q5T2W1.
T12 sequence (Q5T2W1 373-468, limits assumed, looked up): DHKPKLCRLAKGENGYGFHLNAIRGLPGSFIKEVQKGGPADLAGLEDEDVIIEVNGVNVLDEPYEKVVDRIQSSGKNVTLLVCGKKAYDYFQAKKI

Another assay addresses T13, APBA1_2, Q02410.
T13 sequence (Q02410 742-832, limits assumed, looked up): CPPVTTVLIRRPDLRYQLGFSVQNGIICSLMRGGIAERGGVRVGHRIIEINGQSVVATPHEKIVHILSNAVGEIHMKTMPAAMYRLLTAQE

A further assay addresses T14, APBA2_2, Q99767.
T14 sequence (Q99767 654-744, limits assumed, looked up): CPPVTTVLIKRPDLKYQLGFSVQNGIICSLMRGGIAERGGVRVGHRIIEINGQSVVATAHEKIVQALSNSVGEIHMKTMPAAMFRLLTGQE

Where [1] appears, read: plain residues with an end cap or a label only (N-terminal biotin on a linker: (peg)3).
Setting [2] is: plain residues with an end cap or a label only (N-terminal biotin on a linker: ado-ado).
Where [3] appears, read: plain residues with an end cap or a label only (N-terminal biotin on a linker: ahx).

One may read the pKd as −log10 of the Kd, conventionally taken in molar units.

Chain of DLG4_1, P78352 (P78352 62-152): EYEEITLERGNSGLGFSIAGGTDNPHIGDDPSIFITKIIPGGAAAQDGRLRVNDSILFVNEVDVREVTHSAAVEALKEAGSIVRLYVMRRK
Chain of MAST2, Q6P0Q8 (Q6P0Q8 1099-1202): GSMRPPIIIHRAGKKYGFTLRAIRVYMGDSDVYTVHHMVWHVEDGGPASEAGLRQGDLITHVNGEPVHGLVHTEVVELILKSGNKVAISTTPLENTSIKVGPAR
Chain of Inadl_4, Q8NI35 (Q8NI35 547-651): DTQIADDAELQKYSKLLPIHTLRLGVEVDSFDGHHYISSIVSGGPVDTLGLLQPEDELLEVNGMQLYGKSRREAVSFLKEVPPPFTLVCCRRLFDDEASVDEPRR
Chain of FRMPD2_2, Q68DX3 (Q68DX3 944-1038): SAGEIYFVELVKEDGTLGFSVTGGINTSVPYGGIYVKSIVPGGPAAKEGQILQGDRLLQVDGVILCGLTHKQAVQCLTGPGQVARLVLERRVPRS
Chain of PDLIM1, O00151 (O00151 1-87): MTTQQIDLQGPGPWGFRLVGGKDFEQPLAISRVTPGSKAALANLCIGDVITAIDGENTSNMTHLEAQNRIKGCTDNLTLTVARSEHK
Chain of GRIP2_4, Q9C0E4 (Q9C0E4 446-548): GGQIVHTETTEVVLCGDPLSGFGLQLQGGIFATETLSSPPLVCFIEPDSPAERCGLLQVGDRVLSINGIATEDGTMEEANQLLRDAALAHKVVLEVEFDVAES
Chain of MAGI2_6, Q86UL8 (Q86UL8 1141-1229): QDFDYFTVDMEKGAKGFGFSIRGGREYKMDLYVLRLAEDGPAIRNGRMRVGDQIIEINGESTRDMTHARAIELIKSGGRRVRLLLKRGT
Chain of PTPN3, P26045 (P26045 505-587): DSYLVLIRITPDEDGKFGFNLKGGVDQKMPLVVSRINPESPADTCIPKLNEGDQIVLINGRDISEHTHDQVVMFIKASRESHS
Chain of CASK, O14936 (O14936 487-570): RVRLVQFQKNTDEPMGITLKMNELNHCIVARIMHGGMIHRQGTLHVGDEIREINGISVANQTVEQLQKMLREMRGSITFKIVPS
Chain of ARHGEF12, Q9NZN5-2 (Q9NZN5 other isoform, or with tags, fused parts or gaps): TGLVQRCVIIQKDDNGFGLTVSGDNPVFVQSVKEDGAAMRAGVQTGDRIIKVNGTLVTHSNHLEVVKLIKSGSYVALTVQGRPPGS

B1: HBV-HBc, P03193 (peptide)
chain: RRRRSQSRESQC
In the case of B1, the pKd in the assay with LIN7B, Q9HAP6 (setting [1]) was 3.7; with MPDZ_5, O75970 (setting [1]), “below the threshold”; in the assay with NHERF3_3, Q5T2W1 (setting [1]), “below the threshold”; in the assay with SIPA1L2, Q9P2F8 (setting [1]) it was “below the threshold”; in the assay with ARHGAP21, Q5T5U3 (setting [1]), “below the threshold”; with MPP7, Q5T2T1 (setting [1]), “below the threshold”. For the same molecule, the pKd result was “below the threshold” with GRIP2_4, Q9C0E4 (setting [1]); “below the threshold” in the assay with PDZD7_3, Q9H5P4 (setting [1]); “below the threshold” with ARHGEF12, Q9NZN5-2 (setting [1]); 4.14 with TX1BP3, O14907 (setting [1]); “below the threshold” in the assay with CASK, O14936 (setting [1]); 4.7 with PTPN3, P26045 (setting [1]). Further, the pKd entry in the assay with GRIP1_5, Q9Y3R0 (setting [1]) is “below the threshold”; in the assay with MAGI2_6, Q86UL8 (setting [1]), “below the threshold”; with SNTB1, Q13884 (setting [1]) it was 4.78; in the assay with MPP2, Q14168 (setting [1]) it was “below the threshold”; in the assay with NHERF3_4, Q5T2W1 (setting [1]), “below the threshold”; in the assay with APBA1_2, Q02410 (setting [1]), “below the threshold”. For the same molecule, the pKd result with FRMPD2_2, Q68DX3 (setting [1]) was “below the threshold”; with MAST2, Q6P0Q8 (setting [1]), 4.26; with APBA2_2, Q99767 (setting [1]), “below the threshold”; with PDLIM1, O00151 (setting [1]), “below the threshold”; in the assay with DLG4_1, P78352 (setting [1]) it was 4.31; with Inadl_4, Q8NI35 (setting [1]) it was “below the threshold”.

B2: CACNG2, Q9Y698 (peptide)
chain: NTANRRTTPV
As for B2, the pKd entry with LIN7B, Q9HAP6 (setting [2]) was “below the threshold”; with MPDZ_5, O75970 (setting [2]), “below the threshold”; with NHERF3_3, Q5T2W1 (setting [2]) it was “below the threshold”; with SIPA1L2, Q9P2F8 (setting [2]), “below the threshold”; in the assay with ARHGAP21, Q5T5U3 (setting [2]) it was 3.86; with MPP7, Q5T2T1 (setting [2]) it was “below the threshold”. In addition, the pKd result is “below the threshold” in the assay with GRIP2_4, Q9C0E4 (setting [2]); 4.19 in the assay with PDZD7_3, Q9H5P4 (setting [2]); 3.93 with ARHGEF12, Q9NZN5-2 (setting [2]); 4.76 with TX1BP3, O14907 (setting [2]); “below the threshold” in the assay with CASK, O14936 (setting [2]); 4.52 in the assay with PTPN3, P26045 (setting [2]). The pKd entry is “below the threshold” with GRIP1_5, Q9Y3R0 (setting [2]); 3.53 in the assay with MAGI2_6, Q86UL8 (setting [2]); 4.23 in the assay with SNTB1, Q13884 (setting [2]); “below the threshold” with MPP2, Q14168 (setting [2]); 3.5 in the assay with NHERF3_4, Q5T2W1 (setting [2]); 3.76 with APBA1_2, Q02410 (setting [2]). Besides, the pKd in the assay with FRMPD2_2, Q68DX3 (setting [2]) was 3.59; with MAST2, Q6P0Q8 (setting [2]), 4.52; in the assay with APBA2_2, Q99767 (setting [2]), “below the threshold”; in the assay with PDLIM1, O00151 (setting [2]) it was “below the threshold”; with DLG4_1, P78352 (setting [2]), 4.5; in the assay with Inadl_4, Q8NI35 (setting [2]) it was “below the threshold”.

B3: FRMPD1, Q5SYB0 (peptide)
chain: TQKFRASTAL
For the molecule B3, the pKd result with LIN7B, Q9HAP6 (setting [3]) is given as “below the threshold”; with MPDZ_5, O75970 (setting [3]), “below the threshold”; in the assay with NHERF3_3, Q5T2W1 (setting [3]), “below the threshold”; with SIPA1L2, Q9P2F8 (setting [3]), “below the threshold”; in the assay with ARHGAP21, Q5T5U3 (setting [3]), “below the threshold”; with MPP7, Q5T2T1 (setting [3]), “below the threshold”. Moreover, the pKd result in the assay with GRIP2_4, Q9C0E4 (setting [3]) was “below the threshold”; with PDZD7_3, Q9H5P4 (setting [3]) it was 3.92; with ARHGEF12, Q9NZN5-2 (setting [3]) it was 4.79; in the assay with TX1BP3, O14907 (setting [3]), 4.17; with CASK, O14936 (setting [3]) it was “below the threshold”; with PTPN3, P26045 (setting [3]), 4.45. The pKd result is “below the threshold” with GRIP1_5, Q9Y3R0 (setting [3]); “below the threshold” with MAGI2_6, Q86UL8 (setting [3]); “below the threshold” with SNTB1, Q13884 (setting [3]); “below the threshold” with MPP2, Q14168 (setting [3]); 4.54 in the assay with NHERF3_4, Q5T2W1 (setting [3]); 3.5 with APBA1_2, Q02410 (setting [3]). The pKd entry was “below the threshold” in the assay with FRMPD2_2, Q68DX3 (setting [3]); 5.36 in the assay with MAST2, Q6P0Q8 (setting [3]); “below the threshold” with APBA2_2, Q99767 (setting [3]); “below the threshold” in the assay with PDLIM1, O00151 (setting [3]); 3.48 with DLG4_1, P78352 (setting [3]); “below the threshold” in the assay with Inadl_4, Q8NI35 (setting [3]).

B4: PTGIR, P43119 (peptide)
chain: AEASVACSLC
For B4, the pKd entry with LIN7B, Q9HAP6 (setting [2]) is “below the threshold”; in the assay with MPDZ_5, O75970 (setting [2]), “below the threshold”; in the assay with NHERF3_3, Q5T2W1 (setting [2]), “below the threshold”; in the assay with SIPA1L2, Q9P2F8 (setting [2]) it was “below the threshold”; in the assay with ARHGAP21, Q5T5U3 (setting [2]), “below the threshold”; with MPP7, Q5T2T1 (setting [2]) it was “below the threshold”. Also, the pKd result with GRIP2_4, Q9C0E4 (setting [2]) was “below the threshold”; with PDZD7_3, Q9H5P4 (setting [2]) it was 4.47; with ARHGEF12, Q9NZN5-2 (setting [2]), 3.53; with TX1BP3, O14907 (setting [2]), “below the threshold”; with CASK, O14936 (setting [2]), “below the threshold”; with PTPN3, P26045 (setting [2]) it was 3.54. Besides, the negative logarithm of the Kd (pKd) entry is reported as “below the threshold” with GRIP1_5, Q9Y3R0 (setting [2]); “below the threshold” with MAGI2_6, Q86UL8 (setting [2]); “below the threshold” in the assay with SNTB1, Q13884 (setting [2]); “below the threshold” with MPP2, Q14168 (setting [2]); “below the threshold” with NHERF3_4, Q5T2W1 (setting [2]); “below the threshold” in the assay with APBA1_2, Q02410 (setting [2]). Also, the pKd result with FRMPD2_2, Q68DX3 (setting [2]) was “below the threshold”; in the assay with MAST2, Q6P0Q8 (setting [2]) it was 4.32; with APBA2_2, Q99767 (setting [2]), “below the threshold”; in the assay with PDLIM1, O00151 (setting [2]), “below the threshold”; in the assay with DLG4_1, P78352 (setting [2]) it was “below the threshold”; with Inadl_4, Q8NI35 (setting [2]), “below the threshold”.
